Seven molecules from patent publication US20040137579A1, “Protein complexes having factor VIII:C activity and production thereof” (Chiron Corporation, published 2004) can be followed below.

The target in experiment [1] is Factor VIII:C Mr 80 K polypeptide (FVIII-LC) encoded by pSVF8-80 (human) (UniProt P00451).
For experiment [2] the target is unchanged. The source holds these as a separate data set.
Experiment [3] shares this target. The source holds these as a separate data set.
The target is the same in experiment [4]. This is another data set of the same source.
For experiment [5] the target is unchanged. This is another data set of the same source.
Experiment [6] has the same target. The source holds these as a separate data set.
Experiment [7] concerns the target T1, Factor VIII:C 80 K light chain encoded by pSVF8-80A (human, UniProt P00451).
T1 chain: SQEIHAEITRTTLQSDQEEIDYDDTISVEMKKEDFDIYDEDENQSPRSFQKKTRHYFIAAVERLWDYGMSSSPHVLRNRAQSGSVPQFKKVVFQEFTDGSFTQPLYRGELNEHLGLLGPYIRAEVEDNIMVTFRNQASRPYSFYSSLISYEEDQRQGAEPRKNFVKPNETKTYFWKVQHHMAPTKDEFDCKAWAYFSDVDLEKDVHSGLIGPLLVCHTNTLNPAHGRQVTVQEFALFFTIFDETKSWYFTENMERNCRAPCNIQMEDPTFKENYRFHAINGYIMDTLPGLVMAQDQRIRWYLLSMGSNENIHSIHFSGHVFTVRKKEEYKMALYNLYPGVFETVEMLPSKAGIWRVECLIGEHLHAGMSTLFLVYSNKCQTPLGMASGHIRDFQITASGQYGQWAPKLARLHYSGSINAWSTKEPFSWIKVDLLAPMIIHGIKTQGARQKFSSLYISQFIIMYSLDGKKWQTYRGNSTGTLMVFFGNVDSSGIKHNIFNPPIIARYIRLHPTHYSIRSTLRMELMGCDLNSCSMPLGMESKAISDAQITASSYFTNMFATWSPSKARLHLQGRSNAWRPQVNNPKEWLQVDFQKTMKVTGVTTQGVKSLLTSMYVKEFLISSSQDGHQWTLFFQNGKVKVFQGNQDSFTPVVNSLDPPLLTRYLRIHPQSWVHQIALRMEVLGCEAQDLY
The experiment can be described thus: cell-based or functional assay.

Experiment [8] addresses T2, Factor VIII:C 80 K light chain encoded by pSVF8-80KG (human, UniProt P00451).
T2 chain: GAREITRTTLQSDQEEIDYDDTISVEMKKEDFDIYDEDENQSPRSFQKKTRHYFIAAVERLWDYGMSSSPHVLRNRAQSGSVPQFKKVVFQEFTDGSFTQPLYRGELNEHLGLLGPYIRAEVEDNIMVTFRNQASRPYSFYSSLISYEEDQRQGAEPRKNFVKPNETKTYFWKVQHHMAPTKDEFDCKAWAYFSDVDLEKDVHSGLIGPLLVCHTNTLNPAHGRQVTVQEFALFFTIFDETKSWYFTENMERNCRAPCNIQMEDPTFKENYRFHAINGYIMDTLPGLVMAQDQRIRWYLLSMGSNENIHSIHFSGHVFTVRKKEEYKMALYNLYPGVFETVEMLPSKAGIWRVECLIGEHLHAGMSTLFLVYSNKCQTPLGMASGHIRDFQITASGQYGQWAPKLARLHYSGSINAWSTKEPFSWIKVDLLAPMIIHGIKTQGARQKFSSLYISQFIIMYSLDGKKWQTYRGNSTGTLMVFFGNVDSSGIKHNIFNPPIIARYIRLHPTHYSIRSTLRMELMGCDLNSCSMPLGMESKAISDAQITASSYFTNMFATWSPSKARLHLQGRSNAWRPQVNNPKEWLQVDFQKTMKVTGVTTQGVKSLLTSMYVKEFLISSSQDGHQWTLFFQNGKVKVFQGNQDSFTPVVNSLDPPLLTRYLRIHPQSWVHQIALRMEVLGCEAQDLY
The experiment can be described thus: cell-based or functional assay.

In experiment [9] the target is T3, Factor VIII:C 80 K light chain encoded by pSVF8-80S (human, UniProt P00451).
T3 chain: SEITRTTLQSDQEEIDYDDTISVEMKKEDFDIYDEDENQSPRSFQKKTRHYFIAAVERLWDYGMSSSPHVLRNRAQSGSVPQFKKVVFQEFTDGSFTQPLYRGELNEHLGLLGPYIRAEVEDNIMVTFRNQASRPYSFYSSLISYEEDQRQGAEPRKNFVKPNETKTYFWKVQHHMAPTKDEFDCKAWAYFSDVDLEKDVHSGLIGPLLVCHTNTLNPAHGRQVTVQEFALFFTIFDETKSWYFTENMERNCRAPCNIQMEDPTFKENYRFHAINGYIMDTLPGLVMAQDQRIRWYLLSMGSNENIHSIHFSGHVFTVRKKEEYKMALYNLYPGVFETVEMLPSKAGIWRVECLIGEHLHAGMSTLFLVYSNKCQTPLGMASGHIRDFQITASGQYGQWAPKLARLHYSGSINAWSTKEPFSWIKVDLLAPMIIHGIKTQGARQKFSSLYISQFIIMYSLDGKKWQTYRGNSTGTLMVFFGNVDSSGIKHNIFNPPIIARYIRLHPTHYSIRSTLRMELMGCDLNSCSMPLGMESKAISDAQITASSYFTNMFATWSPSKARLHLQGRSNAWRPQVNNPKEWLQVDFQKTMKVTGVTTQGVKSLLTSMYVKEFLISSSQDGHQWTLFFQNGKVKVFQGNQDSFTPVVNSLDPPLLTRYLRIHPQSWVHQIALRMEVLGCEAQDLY
The experiment can be described thus: cell-based or functional assay.

For experiment [10], the target named is Factor VIII:C light chain encoded by pSVF8-80AT (alpha1-antitrypsin signal peptide) (human, UniProt P00451). The experiment can be described thus: cell-based or functional assay.

“Factor VIII:C 92 K heavy chain encoded by pCMVF8-92/6x (from UniProt P00451)” registered a COA (COATEST) mU/mL, cotransfected COS7 cells in experiment [1] of 87 mU/mL.
In experiment [2], “Factor VIII:C Mr 92 K polypeptide (FVIII-HC) encoded by pSVF8-92 (from UniProt P00451)” came in with a COATEST Activity mU/mL (medium of cotransfected COS7 cells) of 20.4 mU/mL; a COATEST Activity mU/mL (supernatants of separate transfectants mixed) of less than 0.1 mU/mL; a Coagulation Activity mU/mL (one-stage assay, medium of cotransfected COS7 cells) of 22.5 mU/mL; a Coagulation Activity mU/mL (supernatants of separate transfectants mixed) of less than 0.9 mU/mL.
In the case of “1323 amino acid Factor VIII:C heavy chain encoded by pSVF8-160 (from UniProt P00451)”, the ratio of RIA to COATEST activity in experiment [3] was determined as 1.8.
For “Factor VIII:C Mr 92 K heavy chain encoded by pSVF8-92E (from UniProt P00451)”, the ratio of RIA to COATEST activity in [3] is 7.2. Also, in experiment [4], the COATEST (mU/mL) (stable CHO clone 10C2-D2, 0.05 uM methotrexate) amounted to 496 mU/mL. Also, the Factor VIII:C activity of medium of COS7 cells cotransfected with pSVF8-80 in experiment [5] stood at 1.65 fold.
For the molecule “1416 amino acid Factor VIII:C heavy chain encoded by pSVF8-170 (from UniProt P00451)”, the ratio of RIA to COATEST activity in experiment [3] is 1.8.
On to “Factor VIII:C 92 K heavy chain encoded by pSVF8-92C (from UniProt P00451)”, for which, in [6], the mU COATEST/mL (stable CHO cell line 11-D6) was determined as 43 mU/mL. For the same molecule, in experiment [1], the COA (COATEST) mU/mL, cotransfected COS7 cells is 46 mU/mL.

B1: purified recombinant FVIII:C heavy chains (from full-length human FVIII:C) (other)
chain: ATRRYYLGAVELSWDYMQSDLGELPVDARFPPRVPKSFPFNTSVVYKKTLFVEFTDHLFNIAKPRPPWMGLLGPTIQAEVYDTVVITLKNMASHPVSLHAVGVSYWKASEGAEYDDQTSQREKEDDKVFPGGSHTYVWQVLKENGPMASDPLCLTYSYLSHVDLVKDLNSGLIGALLVCREGSLAKEKTQTLHKFILLFAVFDEGKSWHSETKNSLMQDRDAASARAWPKMHTVNGYVNRSLPGLIGCHRKSVYWHVIGMGTTPEVHSIFLEGHTFLVRNHRQASLEISPITFLTAQTLLMDLGQFLLFCHISSHQHDGMEAYVKVDSCPEEPQLRMKNNEEAEDYDDDLTDSEMDVVRFDDDNSPSFIQIRSVAKKHPKTWVHYIAAEEEDWDYAPLVLAPDDRSYKSQYLNNGPQRIGRKYKKVRFMAYTDETFKTREAIQHESGILGPLLYGEVGDTLLIIFKNQASRPYNIYPHGITDVRPLYSRRLPKGVKHLKDFPILPGEIFKYKWTVTVEDGPTKSDPRCLTRYYSSFVNMERDLASGLIGPLLICYKESVDQRGNQIMSDKRNVILFSVFDENRSWYLTENIQRFLPNPAGVQLEDPEFQASNIMHSINGYVFDSLQLSVCLHEVAYWYILSIGAQTDFLSVFFSGYTFKHKMVYEDTLTLFPFSGETVFMSMENPGLWILGCHNSDFRNRGMTALLKVSSCDKNTGDYYEDSYEDISAYLLSKNNAIEPR
B1: the “Percent Control Activity (COATEST after in vitro combination of purified chains)” value is 92 percent of control activity in experiment [7], 233 percent of control activity in experiment [8], 51 percent of control activity in [9] and 86 percent of control activity in experiment [10].
